Test results as given in publication PMC6885551.

Molecular target: Salmonella FraB deglycase, wild type (Salmonella enterica)
Assay: native MS

- Kd: 31 to 63 nM
Substance: Salmonella FraB deglycase, wild type (enzyme)
